Experimental data: the supplement of paper PMC7125110
± gives the standard error. This sample holds only a part of the variants without activity.

B1: glmS ribozyme (parent)
chain: AUAAAAGCGCCAGAACUACAGAAAUGUAGUUGACGAGGAGGAGGUUUAUCGAAUUUUCGGCGGAUGCCUCCAAA

Experiments:
Settings in all cases: with glucosamine-6-phosphate
[1] = variants of: B1; test: self-cleavage kobs at 640 uM GlcN6P; higher = faster cleavage; RNA array
Method in brief: (§1)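 In situ transcription by E. coli RNA polymerase produced barcoded ribozyme variants on sequenced MiSeq chips, and a hybridised Cy3 probe tracked them at 37 °C. Glucosamine-6-phosphate was flowed in at 40 μM to 10 mM in HEPES/KCl/Mg(OAc)2 buffer. kcat and KM were taken from weighted Michaelis–Menten fits of kobs values from exponential decay fits.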

[2] = variants of: B1; test: self-cleavage kobs at 10000 uM GlcN6P; higher = faster cleavage; RNA array
Method in brief: as §1

[3] = variants of: B1; test: self-cleavage kobs at 2500 uM GlcN6P; higher = faster cleavage; RNA array
Method in brief: as §1

Variant | self-cleavage kobs at 640 uM GlcN6P [1] [s⁻¹] | self-cleavage kobs at 10000 uM GlcN6P [2] [s⁻¹] | self-cleavage kobs at 2500 uM GlcN6P [3] [s⁻¹]
A15U U45A A53C | 0.000941 ± 0.00022 | – | –
C11U A33C G41A | < 1e-05 | – | –
C10G G38A C58G A64C | 0.000102 ± 4.5e-05 | – | –
G7A U56C C68U | < 1e-05 | < 1e-05 | –
G43A U46G C70G | < 1e-05 | – | < 1e-05
G29U G40A C70U | 3.68e-05 ± 1.2e-05 | – | –
C34U C70A | 0.00139 ± 0.00062 | – | –
A14U A36C U47C | < 1e-05 | – | –
A36C G37A A64C G66A | < 1e-05 | – | –
G37U A42C C50A A64U | < 1e-05 | – | –
G7A G9U C68U | < 1e-05 | – | –
A42G C58A A64U | < 1e-05 | – | < 1e-05
G9U G59C G63C C70U | < 1e-05 | – | –
U31G G44A C68U | < 1e-05 | – | –
A14G C34U U54G C58G U69G | 0.000551 ± 0.0002 | – | –
G9C C50U U55G | < 1e-05 | – | < 1e-05
A14C A33C G44C G59U | < 1e-05 | – | < 1e-05
A33C U54G C71U | 7.35e-05 ± 2.2e-05 | – | 0.000178 ± 4.9e-05
A36U A42C U47A | < 1e-05 | – | < 1e-05
C11U C50U G60C | < 1e-05 | – | –
C34A G41A | < 1e-05 | – | < 1e-05
U2C G32C G60U G63C | < 1e-05 | – | –

Variant | self-cleavage kobs at 640 uM GlcN6P [1] [s⁻¹] | self-cleavage kobs at 10000 uM GlcN6P [2] [s⁻¹] | self-cleavage kobs at 2500 uM GlcN6P [3] [s⁻¹]
A36C A39C A52U | < 1e-05 | – | –
G60A C61G C67G | < 1e-05 | – | –
C16G A36C G51A G59C C61G | < 1e-05 | – | < 1e-05
G9A C68A U69C | < 1e-05 | – | –
G9A G13C U57C | < 1e-05 | – | < 1e-05
A36U G40U G60U | < 1e-05 | – | < 1e-05
A6C G35C U54A | < 1e-05 | < 1e-05 | < 1e-05
C34A G35A A42G | < 1e-05 | – | < 1e-05
G7U G35U A42G | < 1e-05 | – | < 1e-05
G32C G37U G38C | < 1e-05 | – | < 1e-05
C16U A39U A42C | 8.5e-05 ± 2.3e-05 | – | 0.000172 ± 3.6e-05
G9C A33G G35A G63U | < 1e-05 | – | –
G9C A53C C70U | < 1e-05 | – | < 1e-05
A12C C67A C68A | 7.04e-05 ± 1.6e-05 | – | 4.41e-05 ± 2.1e-05
G13U G60U C68A C71A | < 1e-05 | – | < 1e-05
U2C G35U C68U | < 1e-05 | – | –
U30G A39U U45G | 0.000324 ± 5.9e-05 | 0.0014 ± 0.00018 | 0.00055 ± 0.0001
G41A G44U G66A | < 1e-05 | – | < 1e-05
G13C A14C G32U U69C | 8.31e-05 ± 2.1e-05 | – | 7.03e-05 ± 2e-05
U31A G32A G59U G62A | < 1e-05 | – | –
G13U G29A U31A G37C | < 1e-05 | – | –
G9A G44U A52G U65G | < 1e-05 | – | < 1e-05

Variant | self-cleavage kobs at 640 uM GlcN6P [1] [s⁻¹] | self-cleavage kobs at 10000 uM GlcN6P [2] [s⁻¹] | self-cleavage kobs at 2500 uM GlcN6P [3] [s⁻¹]
G29U A33C C50U U57A C61U | < 1e-05 | – | –
G32A U57G U69G | 0.000252 ± 0.00011 | – | –
A12C U65G C67U | 0.000474 ± 0.00016 | 0.00133 ± 0.00031 | –
C10U A15U G35A C61G | < 1e-05 | – | < 1e-05
C34A A53U C70U | < 1e-05 | – | –
G29U A48U A53U G63A | < 1e-05 | – | < 1e-05
A33C A48C C71A | < 1e-05 | – | < 1e-05
U45G G60A C67G | < 1e-05 | – | < 1e-05
G7U A33U G37U G63A | < 1e-05 | – | < 1e-05
A6U G41A C58A | < 1e-05 | – | –
A33U U45G U47A C67A C68G | < 1e-05 | – | < 1e-05
U65A G66A C71U | 0.000198 ± 4.2e-05 | – | 0.000397 ± 0.0001
G32U U56A C68G | 0.000222 ± 9e-05 | – | –
C61U C67G | < 1e-05 | – | –
G7U A15U U47G | < 1e-05 | – | –
U45C A48C G63U | < 1e-05 | – | < 1e-05
A12U G32A G41C G62U C68U | < 1e-05 | – | < 1e-05
G35U C67A U69C | < 1e-05 | – | –
A6C A33C A48C G60U | < 1e-05 | – | –
G32C A33G U47A U54C A64C C71U | < 1e-05 | – | < 1e-05
A42C G44U | < 1e-05 | < 1e-05 | –
C11G G13U C50G G60U C61G | 5.02e-05 ± 2.4e-05 | – | –

Variant | self-cleavage kobs at 640 uM GlcN6P [1] [s⁻¹] | self-cleavage kobs at 10000 uM GlcN6P [2] [s⁻¹] | self-cleavage kobs at 2500 uM GlcN6P [3] [s⁻¹]
U46C G59C | < 1e-05 | – | –
A36G C58A G59U C70U | < 1e-05 | – | < 1e-05
G9U G41A A42U | < 1e-05 | – | < 1e-05
A15G A53C C68U | 4.28e-05 ± 2e-05 | – | 0.000114 ± 3.9e-05
U30G U55A | 0.0024 ± 0.00049 | – | 0.00295 ± 0.00084
C8G A15G C16U U45G U49A | < 1e-05 | – | < 1e-05
G7U U30A G63A | < 1e-05 | – | –
A6C C16U G38U U47C G63A | < 1e-05 | – | < 1e-05
C10G C16A A53U G66U U69A | 5.56e-05 ± 2.7e-05 | – | 4.65e-05 ± 2e-05
G7U G38A G44U | < 1e-05 | – | –
A6U A14C G51C | < 1e-05 | – | < 1e-05
G38A G41U A42C U45C U54G C68G | < 1e-05 | – | –
C8G G32U G44C | < 1e-05 | – | –
A33C G43U G63U | < 1e-05 | < 1e-05 | < 1e-05
U30G U45C C71A | 3.43e-05 ± 1.1e-05 | – | 8.42e-05 ± 2e-05
C8G C11U G32U G59U | < 1e-05 | – | < 1e-05
C8G G35A G44C | < 1e-05 | < 1e-05 | –
G35C A36U G40A | < 1e-05 | – | < 1e-05
G37C C50U A53G U56C | < 1e-05 | – | –
A6G A15C G32U | < 1e-05 | – | –
A33C A42U | < 1e-05 | – | < 1e-05
A12C A14G G60U | < 1e-05 | – | –

Variant | self-cleavage kobs at 640 uM GlcN6P [1] [s⁻¹] | self-cleavage kobs at 10000 uM GlcN6P [2] [s⁻¹] | self-cleavage kobs at 2500 uM GlcN6P [3] [s⁻¹]
G32U G38U | < 1e-05 | – | < 1e-05
U31A U65C | 6.63e-05 ± 2.8e-05 | 0.000395 ± 0.0001 | 0.000132 ± 3.7e-05
A6G G51C A53U C67U | < 1e-05 | – | –
U31A G37U U47A U54C U69G | 5.3e-05 ± 2e-05 | – | –
G40U U45C | 0.000101 ± 2.7e-05 | 0.000329 ± 7e-05 | 0.000729 ± 0.00014
U31A U47C U54G | 0.000284 ± 6e-05 | – | 0.00068 ± 0.00013
G40C C67G C70G | < 1e-05 | < 1e-05 | –
G9C A48G C67G C68A | 9.72e-05 ± 4.1e-05 | 0.000631 ± 0.00016 | –
G37U C61G | < 1e-05 | < 1e-05 | –
U31C G60U G63C | < 1e-05 | – | –
C16U A39G G66A | 0.00662 ± 0.0015 | – | –
C11U A15C A33G G44U U49C A64C C70U | < 1e-05 | – | < 1e-05
G13U A39G U55G | 0.000281 ± 8e-05 | 0.0028 ± 0.00059 | 0.000683 ± 0.00022
C10U G13A G29A G41A | < 1e-05 | – | –
A6U C50G U55A C71U | 0.00151 ± 0.00047 | – | –
A15C G51A G59C | < 1e-05 | – | < 1e-05
A15U A39C A42U | < 1e-05 | – | –
G7C C71A | < 1e-05 | < 1e-05 | –
G29U A42G G62C | < 1e-05 | – | –
G43C G51A C67U | < 1e-05 | – | –
G29U U69A C71G | 8.16e-05 ± 3.4e-05 | – | –
G13C G44C G60A | < 1e-05 | – | –

Variant | self-cleavage kobs at 640 uM GlcN6P [1] [s⁻¹] | self-cleavage kobs at 10000 uM GlcN6P [2] [s⁻¹] | self-cleavage kobs at 2500 uM GlcN6P [3] [s⁻¹]
G29C U49C C50G G51U U65C | < 1e-05 | – | < 1e-05
A52G U69G C70U | 0.000107 ± 3.1e-05 | – | 7.59e-05 ± 1.7e-05
A14U A42C A64C | < 1e-05 | < 1e-05 | < 1e-05
A15C G29U U55A | 0.000758 ± 0.0002 | – | –
G9U U54C | < 1e-05 | – | –
C8A C34U A36U G59U G62A | < 1e-05 | – | –
G7A G37U U46G U55C C58A | < 1e-05 | – | –
G13U G32A A36G G38U | < 1e-05 | – | –
G44C C70A | < 1e-05 | < 1e-05 | < 1e-05
A6U G9C A12C U55A | < 1e-05 | – | < 1e-05
A12C C34A U69C | < 1e-05 | – | –
G60C C70A | < 1e-05 | < 1e-05 | –
A36C A42U A52G C70U | < 1e-05 | – | –
G32A G35U G38C A39C U49G | < 1e-05 | – | < 1e-05
C11A A42C U46C C71U | < 1e-05 | – | –
G32C A33G A42U U45G U57C A64C C71A | < 1e-05 | – | < 1e-05
U30C G51A U65G | < 1e-05 | – | < 1e-05
A36U A39U C71U | < 1e-05 | – | –
G44A C50G | < 1e-05 | < 1e-05 | < 1e-05
U46G U57C | < 1e-05 | – | –
A14U C68G | 6.11e-05 ± 1.7e-05 | – | 3.41e-05 ± 1.3e-05
